# Results reported in US5683890A, “Bacteriocins from Streptococcus thermophilus” (Nestec S.A., priority 1993, dated 1997).
# B1: thermophilin 1: first bacteriocin from S. thermophilus CNCM I-1351, sequence SEQ ID NO: 1, found in fraction 15 (protein)
# chain: YSGKDCLKDMGGYALAGAGSGALWGAPAGGVGALPGAFVGAHVGAIAGGFACMGGMIGNKFN
# Tested on: S. thermophilus strain Sfi3 (typical indicator)
# Assay: Agar well test, antibacterial activity in arbitrary units
# Format: cell-based, Streptococcus thermophilus
# Conditions: Pep RPC fractions 15 and 21
# Protocol: In order to do this, 35 ml of M 17 medium are poured into a Petri dish and 1% sucrose and 1.5% agar are added thereto.
# 5 ml of M 17 medium to which 1% sucrose and 0.75% agar are added are inoculated with 5 μl of a culture, prepared during the previous night, of a strain of S. thermophilus which is typically sensitive to the present bacteriocin (typical indicator), in this case the strain Sfi3 for example.
# The 5 ml are poured over the 35 ml and left to dry for 15 min under a laminar flow. Holes of 5 mm in diameter are punched in the culture medium.
# The test samples are poured into the holes, in an amount of 70 μl per hole. The incubation is carried out for 6 h under anaerobic conditions at 42° C. During this incubation, the typical indicator strain has grown and inhibition halos are visible.
row,Molecule,antibacterial activity of purified peptide fractions
1,"thermophilin 2: second bacteriocin from S. thermophilus CNCM I-1351, sequence SEQ ID NO: 2, predominant in fraction 21 (QINWGSVVGHCIGGAIIGGAFSGGAAAGVGCLVGSGKAIINGL)",antibacterial activity
2,B1,antibacterial activity

# Target: standard crude extract of bacteriocin from the culture supernatant of S. thermophilus CNCM I-1351
# Assay: not given
# Conditions: not given
row,Molecule,Inactivation (mm): diameter of the inhibition halo in the agar well test after incubation with the enzyme [mm]
1,Catalase (SIGMA C-10) (enzyme),14
2,Ficin (SIGMA P-3266) (enzyme),0
3,Lipase (SIGMA L-0382) + protease inhibitors (enzyme),14
4,Nagarse (SIGMA P-4789) (enzyme),0
5,Pepsin (SIGMA P-700) (enzyme),0
6,Pronase E (SIGMA P-8038) (enzyme),0
7,Proteinase K (MERCK 1000 144) (from UniProt P06873) (enzyme),0
8,Trypsin (SIGMA T-8128) (enzyme),0
9,α-amylase (SIGMA λ-0521) (enzyme),14
10,α-chymotrypsin (SIGMA C-7762) (enzyme),0
